From patent publication US20230203158A1 (FLAGSHIP PIONEERING INNOVATIONS VII, published 2023) come the findings set out here.

Substitutions are numbered along the chain they refer to. Names and notes keep the numbering of the source.

The target in experiment [1] is IL-10 receptor of HEK-BLUE IL-10 cells (the cells express all the components of the IL-10 signaling pathway). Put plainly: cell-based or functional assay.
Experiment [2] has as its target T1, DSG1 stably expressed on HEK-BLUE IL-10 cells (called human DSG1; DSG1 gene NP_034209.2) (human, UniProt Q02413 50-1049).
T1 sequence (looked up): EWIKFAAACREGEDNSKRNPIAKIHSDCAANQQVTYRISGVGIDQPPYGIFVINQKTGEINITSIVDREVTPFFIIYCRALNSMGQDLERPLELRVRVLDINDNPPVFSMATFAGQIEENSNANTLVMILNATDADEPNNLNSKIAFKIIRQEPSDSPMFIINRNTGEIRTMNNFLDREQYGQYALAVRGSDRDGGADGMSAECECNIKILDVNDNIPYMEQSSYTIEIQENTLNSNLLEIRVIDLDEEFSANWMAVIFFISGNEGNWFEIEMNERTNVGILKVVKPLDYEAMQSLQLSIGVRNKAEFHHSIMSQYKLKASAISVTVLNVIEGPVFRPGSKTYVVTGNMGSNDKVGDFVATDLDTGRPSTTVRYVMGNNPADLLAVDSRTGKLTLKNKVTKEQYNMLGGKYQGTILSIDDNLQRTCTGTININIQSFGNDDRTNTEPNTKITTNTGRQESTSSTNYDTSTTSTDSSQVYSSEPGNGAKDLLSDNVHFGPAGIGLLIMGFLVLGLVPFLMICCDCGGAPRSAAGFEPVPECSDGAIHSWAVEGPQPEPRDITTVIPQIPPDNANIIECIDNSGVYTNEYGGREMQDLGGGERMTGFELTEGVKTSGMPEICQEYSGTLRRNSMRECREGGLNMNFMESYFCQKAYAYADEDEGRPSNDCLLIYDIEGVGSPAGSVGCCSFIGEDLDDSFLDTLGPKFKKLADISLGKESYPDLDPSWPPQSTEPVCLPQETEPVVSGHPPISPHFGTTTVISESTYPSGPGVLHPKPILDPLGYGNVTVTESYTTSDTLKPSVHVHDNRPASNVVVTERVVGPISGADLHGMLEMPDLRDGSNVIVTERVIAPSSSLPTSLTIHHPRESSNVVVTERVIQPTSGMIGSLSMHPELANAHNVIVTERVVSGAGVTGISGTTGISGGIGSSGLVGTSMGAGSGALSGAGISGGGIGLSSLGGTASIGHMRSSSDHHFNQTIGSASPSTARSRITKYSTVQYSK
Put plainly: cell-based or functional assay.

Experiment [3] addresses T2, recombinant His-tagged murine RAGE protein (ab276858 from Abcam) (murine, UniProt Q62151 23-342, limits assumed).
T2 construct: also called murine RAGE antigen; not shown: His tag
Put plainly: BLI, ANDbody on anti-human IgG Fc biosensors, murine RAGE at 150 nM then murine Notch2 NRR at 150 nM. The procedure:
To test simultaneous dual antigen binding of the Notch2/RAGE ANDbodies by BLI, PRO051, PRO052 and PRO053, along with monovalent parental antibody controls were immobilized on anti-human IgG Fc biosensors and dipped into the recombinant His-tagged murine RAGE protein at 150 nM, followed by a second association step into wells containing recombinant murine Notch2 NRR at 150 nM to measure dual antigen binding. The dissociation rate was then measured by dipping the biosensors into buffer.
On the technique in general: In BLI a coated tip is dipped into the sample, and binding shifts an interference pattern.

The target in experiment [4] is T3, mouse CDH17 (NCBI accession NP 062727.1) with a c-Myc epitope tag at the C terminus, transiently expressed in … (mouse, UniProt Q9R100 26-827).
T3 construct: whole, on cells; also called cadherin 17
T3 sequence (looked up): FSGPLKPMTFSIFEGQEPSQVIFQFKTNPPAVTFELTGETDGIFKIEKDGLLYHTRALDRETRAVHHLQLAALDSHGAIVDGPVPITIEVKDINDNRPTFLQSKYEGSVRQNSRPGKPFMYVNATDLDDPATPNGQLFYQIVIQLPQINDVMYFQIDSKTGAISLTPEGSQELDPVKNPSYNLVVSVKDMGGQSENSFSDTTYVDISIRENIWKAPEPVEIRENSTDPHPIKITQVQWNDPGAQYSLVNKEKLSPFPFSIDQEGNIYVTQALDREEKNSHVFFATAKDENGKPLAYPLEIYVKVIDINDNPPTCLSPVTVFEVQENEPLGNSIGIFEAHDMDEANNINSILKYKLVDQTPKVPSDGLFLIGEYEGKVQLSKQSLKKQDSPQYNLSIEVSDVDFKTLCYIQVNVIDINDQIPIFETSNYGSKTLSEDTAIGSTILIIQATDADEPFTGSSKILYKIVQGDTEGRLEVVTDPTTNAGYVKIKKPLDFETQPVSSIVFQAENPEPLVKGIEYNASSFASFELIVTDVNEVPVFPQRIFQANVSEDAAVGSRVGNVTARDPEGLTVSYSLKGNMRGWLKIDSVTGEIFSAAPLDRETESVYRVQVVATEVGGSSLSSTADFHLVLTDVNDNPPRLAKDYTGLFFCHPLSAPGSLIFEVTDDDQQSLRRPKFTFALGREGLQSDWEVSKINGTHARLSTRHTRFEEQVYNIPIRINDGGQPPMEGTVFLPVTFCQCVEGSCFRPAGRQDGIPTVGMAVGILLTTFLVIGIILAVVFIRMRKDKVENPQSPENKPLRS
Put plainly: flow cytometry on RAW 264.7 cells transiently expressing mouse CDH17. The text has this: To confirm binding activity and specificity, mouse CDH17 (NCBI accession NP 062727.1) with a c-Myc epitope tag at the protein C terminus was transiently expressed in RAW 264.7 cells using LIPOFECTAMINE™ 3000 (ThermoFisher Scientific) according to the manufacturer's protocol.
On the technique in general: In flow cytometry, cells or beads pass a laser one at a time.

T2 sequence (Q62151 23-342 limits assumed): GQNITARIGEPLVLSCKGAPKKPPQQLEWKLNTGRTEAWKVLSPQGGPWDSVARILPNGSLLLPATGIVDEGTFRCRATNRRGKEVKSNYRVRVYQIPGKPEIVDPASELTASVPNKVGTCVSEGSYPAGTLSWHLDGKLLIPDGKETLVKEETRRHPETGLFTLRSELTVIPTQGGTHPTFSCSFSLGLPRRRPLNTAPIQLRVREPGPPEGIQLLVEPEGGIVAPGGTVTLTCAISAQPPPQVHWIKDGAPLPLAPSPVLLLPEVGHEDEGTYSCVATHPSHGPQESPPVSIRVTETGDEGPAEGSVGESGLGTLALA

B1: PRO026 (IL-10/DSG1 ANDbody: monomeric IL-10 replacing one Fab of the anti-DSG1 mAb) (other)
heavy: EVQLVESGGGLVQPGRSLRLSCAASGFTFDDYAMHWVRQAPGKGLEWVSGISWNSGSIDYADSVKGRFTISRDNAKNSLYLQMNSLRVEDTALYYCAKDGSRVFGVGGGFDFWGQGTMVTVSSASTKGPSVFPLAPSSKSTSGGTAALGCLVKDYFPEPVTVSWNSGALTSGVHTFPAVLQSSGLYSLSSVVTVPSSSLGTQTYICNVNHKPSNTKVDKKVEPKSCDKTHTCPPCPAPEAAGGPSVFLFPPKPKDTLMISRTPEVTCVVVDVSHEDPEVKFNWYVDGVEVHNAKTKPREEQYNSTYRVVSVLTVLHQDWLNGKEYKCKVSNKALGAPIEKTISKAKGQPREPQVYTLPPSRDELTKNQVKLTCLVKGFYPSDIAVEWESNGQPENNYKTTPPVLDSDGSFFLYSSLTVDKSRWQQGNVFSCSVMHEALHNHYTQKSLSLSPG
light: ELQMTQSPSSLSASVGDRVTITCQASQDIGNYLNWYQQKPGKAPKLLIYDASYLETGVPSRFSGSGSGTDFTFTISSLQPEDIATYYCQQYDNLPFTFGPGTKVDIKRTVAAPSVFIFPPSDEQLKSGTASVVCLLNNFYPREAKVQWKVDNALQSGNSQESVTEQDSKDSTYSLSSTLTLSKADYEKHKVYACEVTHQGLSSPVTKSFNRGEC
chain: SPGQGTQSENSCTHFPGNLPNMLRDLRDAFSRVKTFFQMKDQLDNLLLKESLLEDFKGYLGCQALSEMIQFYLEEVMPQAENQDPDIKAHVNSLGENLKTLRLRLRRCHRFLPCENGGGSGGKSKAVEQVKNAFNKLQEKGIYKAMSEFDIFINYIEAYMTMKIRNGGGGSGGGGSDKTHTCPPCPAPEAAGGPSVFLFPPKPKDTLMISRTPEVTCVVVDVSHEDPEVKFNWYVDGVEVHNAKTKPREEQYNSTYRVVSVLTVLHQDWLNGKEYKCKVSNKALGAPIEKTISKAKGQPREPQVYTLPPSRDELTKNQVSLTCLVSGFYPSDIAVEWESNGQPENNYKTTPPVLDSDGSFKLYSKLTVDKSRWQQGNVFSCSVMHEALHNHYTQKSLSLSPG
For B1, the “EC50 (pM), HEK-BLUE IL-10 signaling assay (SEAP)” value in experiment [1] amounted to 750 pM.

B2: PRO027 (IL-10/DSG1 ANDbody: IL-10 dimer replacing one Fab of the anti-DSG1 mAb) (other)
heavy: B1 heavy
light: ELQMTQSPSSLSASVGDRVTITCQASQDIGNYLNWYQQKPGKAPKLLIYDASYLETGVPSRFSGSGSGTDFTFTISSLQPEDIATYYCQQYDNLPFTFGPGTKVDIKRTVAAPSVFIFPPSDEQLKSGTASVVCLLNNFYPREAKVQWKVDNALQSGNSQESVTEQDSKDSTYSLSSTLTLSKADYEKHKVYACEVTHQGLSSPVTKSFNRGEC
chain: SPGQGTQSENSCTHFPGNLPNMLRDLRDAFSRVKTFFQMKDQLDNLLLKESLLEDFKGYLGCQALSEMIQFYLEEVMPQAENQDPDIKAHVNSLGENLKTLRLRLRRCHRFLPCENKSKAVEQVKNAFNKLQEKGIYKAMSEFDIFINYIEAYMTMKIRNGGGSGGGSPGQGTQSENSCTHFPGNLPNMLRDLRDAFSRVKTFFQMKDQLDNLLLKESLLEDFKGYLGCQALSEMIQFYLEEVMPQAENQDPDIKAHVNSLGENLKTLRLRLRRCHRFLPCENKSKAVEQVKNAFNKLQEKGIYKAMSEFDIFINYIEAYMTMKIRNGGGGSGGGGSDKTHTCPPCPAPEAAGGPSVFLFPPKPKDTLMISRTPEVTCVVVDVSHEDPEVKFNWYVDGVEVHNAKTKPREEQYNSTYRVVSVLTVLHQDWLNGKEYKCKVSNKALGAPIEKTISKAKGQPREPQVYTLPPSRDELTKNQVSLTCLVSGFYPSDIAVEWESNGQPENNYKTTPPVLDSDGSFKLYSKLTVDKSRWQQGNVFSCSVMHEALHNHYTQKSLSLSPG
B2: the “EC50 (pM), HEK-BLUE IL-10 signaling assay (SEAP)” value in experiment [1] is 19 pM.

B3: PRO058 (IL-10/DSG1 ANDbody in which monomeric IL-10 replaces one Fab of the anti-DSG1 mAb; functionally equivalent to PRO026, with a substitution in the Fc … (other)
heavy: B1 heavy
light: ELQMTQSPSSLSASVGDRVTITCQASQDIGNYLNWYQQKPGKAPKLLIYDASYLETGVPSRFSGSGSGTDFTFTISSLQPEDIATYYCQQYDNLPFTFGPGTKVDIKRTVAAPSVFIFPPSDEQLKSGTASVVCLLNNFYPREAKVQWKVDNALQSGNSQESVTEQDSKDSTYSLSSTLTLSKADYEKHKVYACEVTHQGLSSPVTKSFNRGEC
chain: B1 chain with H391R, Y392F
As to B3, the “increase in potency of IL-10 signaling (SEAP) on HEK-BLUE IL-10/DSG1 cells against parental HEK-BLUE IL-10 cells” value in experiment [2] is around 15 fold.

B4: PRO052 (Notch2/RAGE ANDbody made by controlled Fab arm exchange of PRO035 K409R and PRO002 F405L) (bispecific antibody)
heavy 1: not shown
light 1: DIQMTQSPSSLSASVGDRVTITCRASQSNRRFLAWYQQKPGKAPKLLIYGASSRASGVPSRFSGSGSGTDFTLTISSLQPEDFATYYCQQYYISPLTFGQGTKVEIKRTVAAPSVFIFPPSDEQLKSGTASVVCLLNNFYPREAKVQWKVDNALQSGNSQESVTEQDSKDSTYSLSSTLTLSKADYEKHKVYACEVTHQGLSSPVTKSFNRGEC
heavy 2: not shown
light 2: DIQMTQSPSSLSASVGDRVTITCRASQDVGIYVNWFQQKPGKAPRRLIYRATNLADGVPSRFSGSRSGTDFTLTISSLQPEDFATYYCLEFDEHPLTFGGGTKVEIKRTVAAPSVFIFPPSDEQLKSGTASVVCLLNNFYPREAKVQWKVDNALQSGNSQESVTEQDSKDSTYSLSSTLTLSKADYEKHKVYACEVTHQGLSSPVTKSFNRGEC
notes: copies: 1 + 1 + 1 + 1
For B4, the binding result in experiment [3] is listed as “binds”.

B5: PRO053 (Notch2/RAGE ANDbody made by controlled Fab arm exchange of PRO036 K409R and PRO002 F405L) (bispecific antibody)
heavy 1: not shown
light 1: B4 light 1 with N29V, R31S, G50R, S53I, L96W
heavy 2: not shown
light 2: B4 light 2
notes: copies: 1 + 1 + 1 + 1
Regarding B5, in experiment [3], the binding result is reported as “binds”.

B6: PRO051 (Notch2/RAGE ANDbody made by controlled Fab arm exchange of PRO034 K409R and PRO002 F405L) (bispecific antibody)
heavy 1: not shown
light 1: not shown
heavy 2: not shown
light 2: B4 light 2
notes: copies: 1 + 1 + 1 + 1
As for B6, the binding result in experiment [3] is “binds”.

B7: PRO061 (anti-CDH17 antibody MAB8524 on a human IgG1 LALA-PG backbone, kappa light chain) (antibody, V domains shown)
VH: QSLEESGGRLVTPGTPLTLTCTVSGFSLTSYDMNWVRQAPGKGLEWIGVVRGSGRTYYASWAKGRFTIARTSSTTVDLKMTSLTTGDTATYFCARGDANNNYYEFDIWGPGTLVTVSS
VL: QDMTQTPSPVSAAVGGTVTINCQSSQSVYGDAWLSWFQQKPGQPPKLLIYSASTLASGVPSRFKGSGSGTQFTLTISDLESDDAATYYCAGGYDGINDIRAFGGGTEVVVKR
With B7, the binding result in experiment [4] is “binds”.
